The record followed here is patent US20220187308A1 (published 2022).

For one test, the target named is T1, GC-hIgA (human).
T1 construct: Recombinant human IgA used as the antigen in the Biacore A100 screen of step (22-3); also called recombinant human IgA GC-hIgA; human IgA
The test is described as follows: SPR (Biacore A100), antibody from culture supernatant on a protein A chip, GC-hIgA as analyte, 25 C, 1.2 mM CaCl2, pH 7.4 (step 22-3). As for the experimental part:
The culture supernatant obtained by the above method was used to analyze GC-hIgA-binding ability using Biacore A100. Antibodies in the culture supernatant were immobilized onto Sensor chip CM5 (GE Healthcare Bio-Sciences Corp.) with protein A (Invitrogen Corp.) immobilized thereon in an appropriate amount by the amine coupling method. A buffer solution containing 20 mM ACES, 150 mM NaCl, 0.05% (w/v) Tween 20, and 1.2 mM CaCl₂) (pH 7.4) were used as a running buffer. GC-hIgA was also diluted with this buffer. Assay was all carried out at 25° C.

The target in test [1] is T2, biotinylated human IgA-Fc (human, UniProt P01876 123-333, biotin added at the C-terminal Avitag sequence by biotin ligase (BirA)).
T2 construct: also called biotin-labeled hIgA-Fc
T2 sequence (P01876 other isoform, or with tags, fused parts or gaps limits assumed): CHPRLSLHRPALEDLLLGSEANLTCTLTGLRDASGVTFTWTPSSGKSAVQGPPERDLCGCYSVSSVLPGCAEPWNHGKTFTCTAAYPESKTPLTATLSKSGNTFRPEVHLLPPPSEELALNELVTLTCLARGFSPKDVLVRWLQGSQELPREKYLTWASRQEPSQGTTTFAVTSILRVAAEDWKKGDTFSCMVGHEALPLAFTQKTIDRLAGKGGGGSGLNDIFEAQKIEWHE
The test is described as follows: phage ELISA (Fab displayed on phage) on biotin-labeled IgA-Fc, 1.2 mM CaCl2 against 1 mM EDTA (step 22-4). Here is the method: Each well of the plate was washed with PBST to remove unbound antigens. […] The plate was left standing at 37° C. for 30 minutes for incubation. […] The plate was incubated for 1 hour. […] The chromogenic reaction of the solution in each well was terminated by the addition of sulfuric acid. Then, the developed color was assayed on the basis of absorbance at 450 nm.
In general terms: In an ELISA, binding on a coated surface is turned into a signal by an enzyme label.

Test [2] concerns the target T2, biotinylated human IgA-Fc. As to the kind of experiment: phage ELISA (Fab displayed on phage) on biotin-labeled IgA-Fc, 1.2 mM CaCl2 against 1 mM EDTA (step 22-6).
In test [3] the target is T3, biotin-labeled recombinant human glypican 3 (human, UniProt P51654 25-563, biotin-labeled using EZ-Link NHS-PEG4-Biotin).
T3 construct: also called GPC3; biotin-labeled GPC3
T3 sequence (P51654 other isoform, or with tags, fused parts or gaps limits assumed): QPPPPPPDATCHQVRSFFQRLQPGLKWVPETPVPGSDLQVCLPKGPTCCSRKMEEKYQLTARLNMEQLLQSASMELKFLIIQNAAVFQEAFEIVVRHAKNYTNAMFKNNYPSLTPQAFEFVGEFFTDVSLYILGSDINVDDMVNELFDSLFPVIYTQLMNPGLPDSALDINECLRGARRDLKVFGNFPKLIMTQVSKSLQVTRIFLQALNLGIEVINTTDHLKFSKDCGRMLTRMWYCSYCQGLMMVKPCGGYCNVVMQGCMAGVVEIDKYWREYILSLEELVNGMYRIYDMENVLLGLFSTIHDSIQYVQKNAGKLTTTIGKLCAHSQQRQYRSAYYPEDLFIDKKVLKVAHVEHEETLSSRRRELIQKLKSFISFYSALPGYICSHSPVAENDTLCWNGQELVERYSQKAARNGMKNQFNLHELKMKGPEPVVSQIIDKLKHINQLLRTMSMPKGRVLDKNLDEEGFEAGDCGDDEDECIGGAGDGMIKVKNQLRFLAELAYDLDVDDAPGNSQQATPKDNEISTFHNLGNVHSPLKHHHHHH
As to the kind of experiment: phage ELISA (Fab displayed on phage) on biotin-labeled GPC3, 1.2 mM CaCl2 against 1 mM EDTA. As for the experimental part: The plate was left standing at 37° C. for 30 minutes for incubation. […] The plate was incubated for 1 hour. […] The chromogenic reaction of the solution in each well was terminated by the addition of sulfuric acid. Then, the developed color was assayed on the basis of absorbance at 450 nm.

T1 sequence (light, as listed by the source): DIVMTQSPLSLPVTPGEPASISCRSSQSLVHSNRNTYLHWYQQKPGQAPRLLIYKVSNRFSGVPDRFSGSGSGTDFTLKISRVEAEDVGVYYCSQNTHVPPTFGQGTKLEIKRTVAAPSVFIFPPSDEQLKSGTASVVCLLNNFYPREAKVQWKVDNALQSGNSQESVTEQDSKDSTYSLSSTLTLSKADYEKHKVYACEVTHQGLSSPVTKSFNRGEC

B1: GA1-IgG1 (antibody, V domains shown)
VH: EVQLVQSGAEVKKPGSSVKVSCKASGGTFSSYAISWVRQAPGQGLEWMGGIIPIFGTANYAQKFQGRVTITADESTSTAYMELSSLRSEDTAVYYCARVAPGNWGSPYFDYWGQGTLVTVSS
VL: DIQMTQSPSSLSASVGDRVTITCRASQSIEDDLAWYQQKPGKAPKLLIYEASSLQSGVPSRFSGSGSGTDFTLTISSLQPEDFATYYCQQRDSSPLTFGQGTKVEIKR
notes: From the Ca library; obtained in step (22-3)
With B1, in the test with GC-hIgA, the binding result is recorded as “binds”.

B2: GA2-IgG1 (antibody, V domains shown)
VH: QVQLVQSGAEVKKPGSSVKVSCKASGGTFSSYAISWVRQAPGQGLEWMGGIIPIFGTANYAQKFQGRVTITADESTSTAYMELSSLRSEDTAVYYCARPRWETAISSDAFDIWGQGTMVTVSS
VL: DIQMTQSPSSLSASVGDRVTITCRASQSISDDLNWYQQKPGKAPKLLIYEASNLQSGVPSRFSGSGSGTDFTLTISSLQPEDFATYYCQQHSSSPLTFGQGTKVEIKR
notes: From the Ca library; obtained in step (22-4)
With B2, the binding result in test [1] is “binds”.

B3: GA3-IgG1 (antibody, V domains shown)
VH: QVQLVQSGAEVKKPGSSVKVSCKASGGTFSSYAISWVRQAPGQGLEWMGGIIPIFGTANYAQKFQGRVTITADESTSTAYMELSSLRSEDTAVYYCARGNGDYLEYFQHWGQGTLVTVSS
VL: DIQMTQSPSSLSASVGDRVTITCRASQSISDDLAWYQQKPGKAPKLLIYEASNLQSGVPSRFSGSGSGTDFTLTISSLQPEDFATYYCQQRDSSPLTFGQGTKVEIKR
notes: From the Ca library; obtained in step (22-6)
With B3, in test [2], the binding result is recorded as “binds”.

B4: CSCM-01_023 (antibody, human IgG1, kappa, V domains shown)
VH: QVQLVQSGAEVKKPGASVKVSCKASGYTFTSYGISWVRQAPGQGLEWMGWISAYNGNTNYAQKLQGRVTMTTDTSTSTAYMELRSLRSDDTAVYYCARDSPLLWFGEPFFDYWGQGTLVTVSS
VL: DIQMTQSPSSLSASVGDRVTITCRASQSIEDDLAWYQQKPGKAPKLLIYHASTLQSGVPSRFSGSGSGTDFTLTISSLQPEDFATYYCQQSDSYPLTFGQGTKVEIKR
notes: Purified IgG in the ELISA of step (24-5)
B4: the binding result in test [3] is given as “binds”.
